Source: US20190127478A1

Assays:
[1] = target: human PD1 receptor on Jurkat-PD1-NFAT-Luc2 reporter cells (human) (UniProt Q15116); assay: cell-based or functional assay
[2] = target: cynomolgus monkey PD-1 (soluble analyte, Octet RED 96) (UniProt B0LAJ3); assay: Octet RED 96
[3] = target: Human PD-1 (soluble analyte, Octet RED 96) (human) (UniProt Q15116); assay: Octet RED 96
[4] = target: FcgRIa; assay: Octet RED 96
[5] = target: FcgRIIIaV; assay: Octet RED 96
[6] = target: FcgRIIb; assay: Octet RED 96
[7] = target: FcRn; assay: Octet RED 96
[8] = target: FcgRIIaH; assay: Octet RED 96

Sequence of human PD1 receptor on Jurkat-PD1-NFAT-Luc2 reporter cells (human) (Q15116 25-288): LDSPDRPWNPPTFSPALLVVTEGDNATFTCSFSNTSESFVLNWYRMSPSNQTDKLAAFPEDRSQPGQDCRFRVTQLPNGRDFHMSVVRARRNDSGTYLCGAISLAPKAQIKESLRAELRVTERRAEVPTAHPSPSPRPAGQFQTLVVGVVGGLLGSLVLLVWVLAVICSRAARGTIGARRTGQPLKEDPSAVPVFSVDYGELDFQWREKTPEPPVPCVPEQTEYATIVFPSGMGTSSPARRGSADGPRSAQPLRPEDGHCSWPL
Sequence of Human PD-1 (soluble analyte, Octet RED 96) (human) (Q15116 25-167): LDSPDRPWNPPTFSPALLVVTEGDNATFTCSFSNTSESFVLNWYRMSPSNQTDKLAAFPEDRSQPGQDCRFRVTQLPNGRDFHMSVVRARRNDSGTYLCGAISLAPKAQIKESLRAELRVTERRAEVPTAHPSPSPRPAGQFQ

Row | Substance | effective dose (ED50), reactivation of NFAT-luciferase luminescence in Jurkat-PD1-NFAT reporter line [1] | Kd [2] | Kd [3] | Kd [4] | Kd [5] | Kd [6] | Kd [7] | Kd [8]
1 | BCD-100 (antibody) | 115 |  |  |  |  |  |  | 
2 | BCD-100 |  | < 0.001 nM | 0.186 nM |  |  |  |  | 
3 | Pembrolizumab IgG4 |  |  |  | 50 nM | 5000 nM | 2300 nM | 5.1 nM | 1300 nM
4 | Nivolumab IgG4 |  |  |  | 64 nM | 4200 nM | 280 nM | 9.52 nM | 1600 nM
